Results published in patent publication US20230167458A1, “FORSKOLIN-INDUCIBLE PROMOTERS AND HYPOXIA-INDUCIBLE PROMOTERS” (ASKLEPIOS BIOPHARMACEUTICAL, INC., priority 2020, published 2023).

System: CHO-GS-KSV1 cell line
Assay: SEAP expression in stably transfected CHO-GS-KSV1, forskolin or NKH477 induction
Type: cell-based, chinese hamster
Conditions: stable CHO-GS-KSV1, SEAP, forskolin or NKH477
Procedure: The forskolin-inducible promoters were then tested in a stably transfected CHO-GS-KSV1 cell line.
• CD-CHO media (Life technologies, CAT #10743029) • Corning 125 mL Polycarbonate Erlenmeyer Flask with Vent Cap (CAT #734-1885). • Gene Pulser® Electroporation Cuvettes, 0.4 cm gap (BioRad, CAT #165-2088) • Gene Pulser Xcell Total System (BioRad, CAT, #1652660) • GS-vector DNA ([…] in 100 μL TE buffer) linearised with Sca1 • Suspension cultures of CHOK1SV GS-KO host cells.
Cell suspensions of 6×10^5 cells per mL were incubated on an orbital shaker set at 8% CO2, 20% O2, 37° C., 85% relative humidity and 140 rpm overnight. 2.86×10^7 cells were centrifuged at 200 g for 3 minutes. Media was then aspirated and cell pellet resuspended in 2 mL fresh CD-CHO media to obtain a concentration of 1.43×10^7 cells per mL. 700 μL of cell suspension was added to each of two electroporation cuvettes each containing […] of linearised DNA in 100 μL of sterile TE buffer (Thermofisher, 12090015). Each cuvette was electroporated, delivering a single pulse of 300V, […] with resistance to infinity. Immediately after delivery of pulse electroplated cells were transferred to Erlenmeyer 125 mL flask containing 20 mL of CD-CHO media pre-warmed to 37° C. Electroporated cells from two cuvettes are combined into a single 125 mL flask to generate one pool of cells. Cells are cultured on an orbital shaker set at 8% CO2, 20% O2, 37° C., 85% relative humidity and 140 rpm. Cells are transferred to fresh CD-CHO media 24 hours after transfection and cell cultures monitored and given fresh CD-CHO media every 2-4 days. Usually after about 10-14 days cell numbers will be high enough to start passaging.
The transfected DNA was the pXC-17.4 expression vector (Lonza Biologics plc) where one of the promoter constructs (or a control promoter (CMV-IE) have been cloned upstream of the secreted alkaline phosphatase (SEAP) gene, which had been cloned into the multiple cloning site within the vector expression cassette. Promoters were closed into the pXC-17.4 vector using Gibson assembly. The pXC-17.4 expression vector is designed for making stable cell lines in the CHO-GSK1SV cell line as it contains the […] gene which has been knocked out of the cell line. Therefore, selection of cells in glutamine drop-out medium will select for cells that have stably integrated the plasmid.
The responsiveness of the RTV-019 promoter to different concentrations of forskolin and […] was tested in the stably transfected CHO-GS-KSV1 cell line. To this end, the stably transfected CHO-GS cells were seeded at 500,000 cells/ml and allowed to grow for 24 hrs. At this point the cells were induced by addition of the respective concentrations of forskolin and NKH477 and SEAP expression was measured as described below after 24 hours.
The promoter activity and inducibility of FMP-02, FORCYB-001, RTV-017, FORCSV-10, FOR-CMC-009, FLP-01 and RTV-019 were also tested in the stably transfected CHO-GS-KSV1 cell line. To this end, the stably transfected CHO-GS cells were seeded at 500,000 cells/ml and allowed to grow for 24 hrs. At this point the cells were exposed to […] forskolin or […] NKH477 for 24 hours. After this point, the SEAP activity in the medium was assessed as described below.
SEAP Reporter Gene Assay, chemiluminescent (Roche, CAT #11 779 842 001) was used to measure SEAP activity as per the manufacturer's protocol. All reagents and samples were fully pre-equilibrated at room temperature. Culture supernatant was collected from the stably transfected CHO-GS at the specific time points (0 h and 24 h). The supernatant was diluted 1:4 in dilution buffer and heat treated at 65° C. for 30 minutes. The heat-treated sample was then centrifuged for 30 s at maximum speed. 50 μl of the heat-treated sample was then added to 5 μl of inactivation buffer and incubated for 5 min at room temperature. 50 μl of substrate reagent was then added and incubated for 10 min at room temperature. […]

B1: RTV-019: synthetic forskolin-inducible promoter, SEQ ID NO: 44; 3× ATF6, 4× AP1(1) and 3× HRE1 TFBS and CMV-MP (nucleic acid)
DNA: TGACGTGCTGATGATGCGTAGCTAGTAGTTGACGTGCTGATGATGCGTAGCTAGTAGTTGACGTGCTGATGATGCGTAGCTAGTAGTTGAGTCAGATGATGCGTAGCTAGTAGTTGAGTCAGATGATGCGTAGCTAGTAGTTGAGTCAGATGATGCGTAGCTAGTAGTTGAGTCAGATGATGCGTAGCTAGTAGTCTGCACGTAGATGATGCGTAGCTAGTAGTCTGCACGTAGATGATGCGTAGCTAGTAGTCTGCACGTAGATGATGCGTAGCTAGTAGTGCAGTTAGCGTAGCTGAGGTACCGTCGACGATATCGGATCCAGGTCTATATAAGCAGAGCTCGTTTAGTGAACCGTCAGATCGCCTAGATACGCCATCCACGCTGTTTTGACCTCCATAGAAGATCGCCACC
modifications: Synp-RTV-019
notes: 3× ATF6, 4× AP1(1) and 3× HRE1 TFBS and CMV-MP
  relative rank of promoter strength: strongest
